Results as given in patent US10925971B2, “Methods of treating PRLR positive breast cancer” (Regeneron Pharmaceuticals, Inc., priority 2016, dated 2021).

T1: monkey PRLR on HEK293/mfPRLR cells (Macaca fascicularis, UniProt A0A2K5WXK1)
T1 construct: HA; expressed in transfected cells; host or cells: HEK293
T1 sequence (A0A2K5WXK1 25-619): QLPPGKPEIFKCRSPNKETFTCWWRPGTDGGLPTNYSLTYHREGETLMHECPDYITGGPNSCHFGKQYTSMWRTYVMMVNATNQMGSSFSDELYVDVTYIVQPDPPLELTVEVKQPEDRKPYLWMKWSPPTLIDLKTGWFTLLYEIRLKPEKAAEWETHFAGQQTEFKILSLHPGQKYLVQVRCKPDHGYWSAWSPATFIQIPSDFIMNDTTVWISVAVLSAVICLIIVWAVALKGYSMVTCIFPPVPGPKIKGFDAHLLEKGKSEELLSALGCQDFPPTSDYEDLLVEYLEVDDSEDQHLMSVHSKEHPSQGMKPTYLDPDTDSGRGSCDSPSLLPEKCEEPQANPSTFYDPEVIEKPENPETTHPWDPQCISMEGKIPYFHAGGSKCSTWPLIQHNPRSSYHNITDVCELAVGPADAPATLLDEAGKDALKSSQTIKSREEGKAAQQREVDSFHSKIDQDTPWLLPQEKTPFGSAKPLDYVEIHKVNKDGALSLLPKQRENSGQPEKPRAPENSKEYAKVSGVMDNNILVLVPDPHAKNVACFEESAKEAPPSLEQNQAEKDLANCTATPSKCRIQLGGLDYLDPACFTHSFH

B1: H1H6958N2-DM1: anti-PRLR antibody H1H6958N2 conjugated to the maytansinoid DM1 through an SMCC linker (conjugate)
VH: QVQLVESGGGVVQPGRSLRLSCGASGFTFRNYGMQWVRQGPGKGLEWVTLISFDGNDKYYADSVKGRFTISRDNSKNTLFLQMNSLRTEDTAVYYCARGGDFDYWGQGTLVTVSS
VL: DIQMTQSPSSLSASVGDRVTITCRASQDIRKDLGWYQQKPGKAPKRLIYAASSLHSGVPSRFSGSGSGTEFTLTISSLQPEDFATYYCLQHNSYPMYTFGQGTKLEIK
B2: H1H6795P: fully human anti-PRLR antibody, human IgG1 Fc; HCVR/LCVR SEQ ID NOs 162/170 (antibody, V domains shown)
VH: QVQLVQSGAEVKKPGASVKVSCKASGYTFGTSGITWVRQAPGQGLEWMGWSSAYNGKTDYAQKFQDRVTMTTDTSTTTGYMEMRSLTSDDTAVYYCTTVVRRPFDFWGQGTLVTVSS
VL: DIQMTQSPSSLSASVGDRVTITCRASQDINNFLAWFQQKPGKAPKSLIYAASSLQSGVPSKFSGGGSGTDFALTISSLQPEDFATYYCQQYSSYPITFGQGTRLEIK
B3: H1H6774P: fully human anti-PRLR antibody, human IgG1 Fc; HCVR/LCVR SEQ ID NOs 34/42 (antibody, V domains shown)
VH: EVQLVESGGGLAQPGGSLRLSCVASGFTFSTYWMSWVRQAPGKGLDWVGNIKQDGSEQNYVDSVRGRFTISRDNAKNSLFLQMNSLRAEDTGVYYCATLLTKGDYWGQGTLVTVSS
VL: DIQMTQSPSSLSASVGDSVTITCRASQDISNYLDWFQQKPGKAPKSLIYAASILQGGVPSRFSGSGYGTDFTLTISSLQPEDFATYYCRQYKTYPFTFGPGTKVDIK

Key:
PC3/PRLR tumors = assay: PC3/PRLR xenograft, tumor size and tumor growth inhibition; format: in vivo, SCID mice; conditions: for Final Tumor size mm^3 (mean ± SEM) / Average Tumor Growth Inhibition (%): SCID mice
Procedure, shortened: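 MCF7/PRLR cells in mammary fat pad of female NCr nude mice, PC3/PRLR in flank of male SCID, T47D #11 in flank of female CB17 SCID, all with estrogen pellets.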

[1] = molecular target: T1, monkey PRLR on HEK293/mfPRLR cells; assay: FACS cell surface binding
Procedure, shortened: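 Values are mean fluorescence intensity relative to an isotype control (background). Antibodies at 10 μg/ml were incubated on ice for 30 min with HEK293 lines stably overexpressing HA-tagged species PRLR or with parental cells. A PE-conjugated anti-human secondary was used for detection.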

[2] = molecular target: T2, monomeric human PRLR (hPRLR.mmh; SEQ ID NO:401) (Homo sapiens, UniProt P16471); assay: Surface plasmon resonance (Biacore T200), antibody-capture format; format: binding; conditions: analyte hPRLR.mmh
T2 construct: soluble monomeric (hPRLR.mmh); mmh (myc-myc-hexahistidine) (C)
T2 sequence (P16471 with tags, fused parts or gaps): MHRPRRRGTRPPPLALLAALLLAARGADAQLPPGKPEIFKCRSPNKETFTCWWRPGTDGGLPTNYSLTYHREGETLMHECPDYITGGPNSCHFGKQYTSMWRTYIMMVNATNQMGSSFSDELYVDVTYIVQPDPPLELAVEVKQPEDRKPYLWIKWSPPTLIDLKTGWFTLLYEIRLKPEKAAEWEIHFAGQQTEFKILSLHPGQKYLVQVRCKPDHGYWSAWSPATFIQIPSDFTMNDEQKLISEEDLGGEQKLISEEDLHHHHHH
Procedure, shortened: (§1)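 Antibodies (human IgG1 Fc) captured on an anti-human Fc sensor surface; soluble monomeric (.mmh) or dimeric (.mFc) PRLR injected as analyte. ka and kd obtained by fitting to a 1:1 binding model.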

[3] = test system: Macaca fascicularis PRLR (mfPRLR.mmh; SEQ ID NO:403); assay: as above; format: binding; conditions: analyte mfPRLR.mmh
Macaca fascicularis PRLR (mfPRLR.mmh; SEQ ID NO:403), sequence (as listed by the source): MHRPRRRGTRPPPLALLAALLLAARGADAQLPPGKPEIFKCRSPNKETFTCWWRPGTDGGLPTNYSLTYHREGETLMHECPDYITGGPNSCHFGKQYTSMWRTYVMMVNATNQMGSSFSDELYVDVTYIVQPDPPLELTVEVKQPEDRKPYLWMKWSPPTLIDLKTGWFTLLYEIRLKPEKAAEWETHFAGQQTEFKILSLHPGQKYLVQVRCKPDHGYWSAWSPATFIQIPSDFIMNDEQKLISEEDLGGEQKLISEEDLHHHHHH
Procedure, shortened: as §1

[4] = molecular target: T3, dimeric human PRLR (hPRLR.mFc; SEQ ID NO:402) (Homo sapiens, UniProt P16471); assay: as above; format: binding; conditions: analyte hPRLR.mFc
T3 construct: dimeric (hPRLR.mFc)
T3 sequence (P16471 with tags, fused parts or gaps): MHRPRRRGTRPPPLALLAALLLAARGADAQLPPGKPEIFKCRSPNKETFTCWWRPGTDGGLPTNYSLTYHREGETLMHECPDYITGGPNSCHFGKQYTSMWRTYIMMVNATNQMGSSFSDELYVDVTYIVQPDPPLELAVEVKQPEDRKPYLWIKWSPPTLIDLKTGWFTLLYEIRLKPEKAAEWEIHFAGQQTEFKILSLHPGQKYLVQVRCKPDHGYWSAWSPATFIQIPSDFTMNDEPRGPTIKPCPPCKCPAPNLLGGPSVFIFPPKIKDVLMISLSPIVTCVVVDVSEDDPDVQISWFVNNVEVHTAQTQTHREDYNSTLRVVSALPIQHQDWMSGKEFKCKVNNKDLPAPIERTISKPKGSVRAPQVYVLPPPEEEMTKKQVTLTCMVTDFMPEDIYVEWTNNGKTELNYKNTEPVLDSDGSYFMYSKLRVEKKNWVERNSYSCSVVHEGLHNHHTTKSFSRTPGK
Procedure, shortened: as §1

HEK293 parental cells = assay: FACS cell surface binding; parameters: species or system human
Procedure, shortened: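 Flow cytometry: 1×10^5 cells/sample; primary Ab 10 μg/ml, 30 min on ice; 2 washes; PE anti-human 2° 10 μg/ml, 30 min on ice. Cells were HEK293 stably expressing HA-tagged PRLR of the given species, or untransfected HEK293. Readout was MFI fold over isotype.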

[5] = PC3/PRLR tumors TRIAL #1, multi-dose 15 mg/kg, Day 63
[6] = PC3/PRLR tumors TRIAL #2, multi-dose 5 mg/kg, Day 55
[7] = PC3/PRLR tumors TRIAL #2, multi-dose 15 mg/kg, Day 55

Row | Molecule | FACS Cell Binding [1] [Fold Above Background] | ka ([2]; 25° C.) [M/s] | kd ([2]; 25° C.) [s⁻¹] | ka ([2]; 37° C.) [M/s] | kd ([2]; 37° C.) [s⁻¹] | ka ([3]; 25° C.) [M/s] | kd ([3]; 25° C.) [s⁻¹] | ka ([3]; 37° C.) [M/s] | kd ([3]; 37° C.) [s⁻¹] | ka ([4]; 25° C.) [M/s] | kd ([4]; 25° C.) [s⁻¹] | ka ([4]; 37° C.) [M/s] | kd ([4]; 37° C.) [s⁻¹] | FACS Cell Binding (HEK293 parental cells) [Fold Above Background] | also measured
1 | B1 |  |  |  |  |  |  |  |  |  |  |  |  |  |  | Final Tumor size mm^3 (mean ± SEM) (PC3/PRLR tumors; PC3/PRLR tumors TRIAL #1, multi-dose 5 mg/kg, Day 63): 1247 ± 171 mm^3; Average Tumor Growth Inhibition (%) (PC3/PRLR tumors; [5]): 46%; Final Tumor size mm^3 (mean ± SEM) (PC3/PRLR tumors; [5]): 808 ± 83 mm^3; Average Tumor Growth Inhibition (%) (PC3/PRLR tumors; [6]): 61%; Final Tumor size mm^3 (mean ± SEM) (PC3/PRLR tumors; [6]): 566 ± 63 mm^3; Average Tumor Growth Inhibition (%) (PC3/PRLR tumors; [7]): 94%; Final Tumor size mm^3 (mean ± SEM) (PC3/PRLR tumors; [7]): 230 ± 22 mm^3; PC3/PRLR tumor growth (PC3/PRLR tumors; multi-dose, especially at 15 mg/kg): demonstrated inhibition of tumor growth
2 | B2 | 22 | 1.17e+06 | 0.00177 | 1.36e+06 | 0.0052 | 844000 | 0.00197 | 973000 | 0.00599 | 1.54e+06 | 8.41e-05 | 1.94e+06 | 7.77e-05 | 1 | 
3 | B3 | 29 | 715000 | 0.000818 | 1.07e+06 | 0.00317 | 495000 | 0.000875 | 723000 | 0.00361 | 798000 | 8.94e-05 | 1.41e+06 | 0.000194 | 1 | 
